In the DeepSol protein solubility set:

Assay: soluble on expression in E. coli; label from the status in PepcDB or PDB records

Row | Sequence | soluble on expression in E. coli
1 | MKAFSSYDEKPPAPPIRFSSSATRENQVVGLKPLPKEPEATKKKKTMPNPFMKKNKDKKEASEKPVISRPSNFEHTIHVGYDPKTGEFTGMPEAWARLLTDSQISKQEQQQNPQAVLDALKYYTQGESSGQKWLQYDMNDAPSRTPSYGLKPQPYSTSSLPYHGNKIQDPRKMNPMTTSTSSAGYNSKQGVPPTTFSVNENRSSMPPSYAPPPVPHGETPADIVPPAIPDRPARTLSIYTKPKEEEEKIPDLSKGQFGVQARGQKAKKKMTDAEVLTKLRTIVSIGNPDRKYRKVDKIGSGASGSVYTAIEISTEAEVAIKQMNLKDQPKKELIINEILVMRENKHANIVNYLDSYLVCDELWVVMEYLAGGSLTDVVTECQMEDGIIAAVCREVLQALEFLHSRHVIHRDIKSDNILLGMDGSVKLTDFGFCAQLSPEQRKRTTMVGTPYWMAPEVVTRKQYGPKVDVWSLGIMAIEMVEGEPPYLNENPLRAIYLIATNGKPDFPGRDSMTLLFKDFVDSALEVQVENRWSASQLLTHPFLRCAKPLASLYYLIVAAKKSIAEASNS | not soluble
2 | MIEISTSATSTTVTIEGDLDLSTRPQFHAATAKLGAVRRPLLVIDASRITFLDSTGAAFLISLADATRKRGGAAVLRGADERVLFVLETCGALDFFRLDPEPGLQEGDGGTRLRG | not soluble
3 | DVGRVLWLAEDITQRKRRREKQALIERVFEVSPVGIVVVERSGRISLANDRAEELLGLEREKITRRRYDQPEWNIYYKDGTEIPDSEHPVTQVLESGEPVFGFEHWIELEDGSERWLSSNAAPILGDDGTVERVVVGLDD | not soluble
4 | MNGKARISIAIDGPAGAGKSTIAKIISKTLNILYLDTGAMYRAVALKAIRESVDTLNREQMSKLVENIDIKIAHSEDIQRIFLDGEDVTDFIRTPEVSIGASNVATVPAVRLKMVELQREIAKKNSVVMDGRDIGTYVLPDATLKFFLTASVEARAIRRYNELLSKGITQITLEDVKKDIEYRDKNDSNREFAPLSKAPDAIEIDTTDLTIEQVVNKIMEYAKDYVC | soluble
5 | MARESVKILQGKLDVESLISQLNAALSEEWLAYYQYWVGALVVEGAMRADVQGEFEEHAEEERRHAQLLADRIIELEGVPVLDPKKWFELARCKYDAPQGFDSVSLLKDNVASERCAILRYQEIADFTNGKDFTTCDIAKHILAEEEEHEQDLQDYLTDIARMKKSFLDK | not soluble
6 | LGNEDFNSVIQQMAQGRQIEYIDIERPSTGGLGFSVVALRSQNLGKVDIFVKDVQPGSVADRDQRLKENDQILAINHTPLDQNISHQQAIALLQQTTGSLRLIVAREPVHTKSST | soluble
7 | MFEKWIGLTLLLNSLAYPCQKVTISFKQYENLLHIHQKGCDNEVMCRTLISIALLESSLGLNNRREKSLKDTSYSMFHITLNTAKKFYPTYSKTLLKFKLLNDVGFAIQLAKQILKENFDYYKQKHPNKSVYQLVEMAIGAYNGGMKHNPNGAYVKKFRCIYSQVRYNE | not soluble
8 | MYNISFTPDRPLTYHLEDDQSLARLSLVPGRGGLVTEWTVQGQPILYFDRERFQDPSLSVRGGIPILFPICGNLPQDQFNHAGKSYRLKQHGFARDLPWEVIGQQTQDNARLDLRLSHNDATLEAFPFAFELVFSYQLQGHSLRIEQRIANLGDQRMPFSLGFHPYFFCREKLGITLAIPANDYLDQKTGDCHGYDGQLNLTSPELDLAFTQISQPRAHFIDPDRNLKIEVSFSELYQTLVLWTVAGKDYLCLEPLEHHHHHH | not soluble
9 | MLEACTKCGTCAEACTMYLGSGRKKIYSPVYRSDMLRKIYKKHFTLTGKLFGPLIGAKDPTEDDINALAESAYRCTVCRRCALACPFGLDNGLITRETRKIFADLGILEHHHHHH | not soluble
10 | AVKTYGMFIGTQFDSSKFLYSAFQAESNLGIWRFAHDKRPKKQSFCRTEKSRRIAIDIVQGWLAVDYDLVGDVRIIRSVLVVSSEPIQTDYTNFTGLTGKPMELSQLLTITQSQSSAKLVCSCFRVTDKQIHDAMEKQDCTSLTQLQNKLKCGTNCGSCISQIKQMVDSHQHQKGKQQASQQSLAIQIK | not soluble
11 | MAIVDPIVTGLNAGWLHTDASQLQANQQFEADVVIVGTGAGGGVAAEILTQAGLSVIMIEAGPLKSSSDFNMEERVAYPNLYQQAAAMKTADKAIGIFQGRAVGGSTTINWTTSIRTPKEALAFWAQHKSVAGLDPEALAPWFDQMEQRLNIHEWNYEPNRNNGALKQGCINLGWDYTVIKRNVAGCWNTGYCGMGCPVNAKQSMLVTTIPSALEKGAQLISRAKVVKIEHHNGQVFALKAQALDVNLRPTAVELLFKAKHYILSAGAIHTPTLMMRSEVPDPHQLLGKRTFLHPTVLSGGVFADTINAHSGAPQSIYSDEFVWKNGADGELGYKLEVPPVHPILIASKTIGYGVSHAELMAQFNQLQVTIALIRDGYHPDSQGGQVHLTPTGFSLDYPLTDAFWRAVRRAYASMAELQFSAGALKVLPISDGMPYLSSWKEAKESIAQMDLAPLKTVVASAHVMGGCPLGEDEKLSMVNSYGQSHYLNNLSVMDGSIFPTSLGANPQLSIYGITARNATALAQKLKDGREPQLEHHHHHH | not soluble
12 | MGSDKIHHHHHHMKKIGHRIKTRRKLKGLTQEALGLAVGVSKVSVSSWELGKNSMHPELLNKVAGVLGVDAHWLLTGESFATLEDEKDSVFWAPKYKNIKAAAGAGCCHDDCLDEDEDEVPIPIKFVKNQTNKDQIFCVCVSGDSMEPVLSDGSIIAMNSSDTIIKDGKMYLVKQDDLLRVKVIHLLPKDMVLKSYNPNFKDETYNIKKDNIQILGRVFWFTSGR | not soluble
13 | GIKDSPVNKVEPNDTLEKVFVSVTKYPDEKRLKGLSKQLDWSVRKIQCWFRHRRNQDKP | soluble
14 | SLSTLKILLCTDNHLGYKENNSIQKKDSFNSFEEILFIAKKLNVDMILNSGDLFHKNKVSEYTLFKSMYIIRKAGKKLIPFYTIHGNHDYPYSYEYISPLDILNISNLINYIGKNNLNNIVVKPILLNKYKSKISIYAVGWMKDERLYRSFENNEVKFILPSDYKNRINILVLHQNRYIRNAYGNNTKNFIKESFIPKFIDLVIWGHEHFSKPYLEESILNSFYNIQLGSSVRTSICPNEYGDKFIGLLEIKNQRFRFLKINLETVRPFEMKDIKLADYELNFKSESVLKEFLHEQTHAILEKIKNNFSHE | not soluble
15 | KSIYIQSPYFIPDQAFLDSIKIAALGGVDVNIMIPNKPDHPFVFWATLKNAASLLDAGVKVFHYDNGFLHSKTLVIDDEIASVGTANMDHRSFTLNFEVNAFIYDQQIAKKLKQAFIDDLAVSSELTKARYAKR | not soluble
16 | MPEVSVEKPLSVIPPEFCANANCPFSPKEISVLRIKVRGGVSKEEILQVNSASRPALPRQHSASTVSPLQSSSDELNNDSGIDNRTVGSPSTSEFSPRSTDLFVSPKSIIDEEPPHHPPPPPPVEEKLDQVLIPLKLSRGQDYAPIYRSLEQDTYYDQSPSESEKDEDLGLTNTKRYTENFRSVEKNQYMPVMSARVEATFKQPPPREGVKPFVSRAAQDITHNGESKVENIDLTIELNREQKATVTATKYPRTDFIMEDYHRPQTQILAPAPKKPNSTTRIYHAVDIPFDESPASYYPKQNNGYQRQRRYSASSASKQDGMFTLNVIMGSQPVHKGMGFSTVKRDERVIVESVIVGSPADKAGLLVGDTILSINGEEMSDKYQSGVTRILHEAARVGEADVLILRAPVPAPMLSKQMSTSSSNSSNYDKARSVFTENKSFDSYAEFKRKHTRTSRDSNSSNATRSSRDFNSLPRGTTAQSSLDRKRDTSLSSYRTAKDNFNSSSNRSSGRSEYGDYRVSNYQEKNAPGRLTDFVPEVDRRLSRREQSEEIYSRSQRDEEPRTIRNYHLSNENIARTNLNYDGRRDSEEESTTTTLKRTTLPRSGTAQWKNEYSDGEEVTEKLPVTSRDSSPLRSALKKSSHNYYHQSSDPVAPPPRRYYSTESLQLPKTSSYQRYSEEEDEEIEETYSSMRRHRQEIPRHVDEFHTVGSYGVMPQRSRSQQPARLPRYDSVPDDVDEVSGVSHRFYDRSGNHVRAPRERIHDIQIQRDYGDRAPSRDLDFVRNTYKWEEQLEDTKVTTTTKIYEKESRDWRDVINQQRQAAPGNSADRRGIAATSSSLSNLPSYINRRMEKEREREIEYRRDREYSMPPADPPVITEKYERDEYSRVEERTYPVPVARNKMRREETQMQSSLQQMHSQSSQKDDSVVAVSGKHRCAHCNEELGRGAAMIVESLNLFYHLACFKCYVCKTSLGSGATGADVRVRDGRLHCQTCYSNDRVQLSKV | not soluble
17 | MGSDKIHHHHHHMDNPRSIRVHASELEVGRPLSWAVYDENGVLLLNKGMAPATEAQIIAMLQRGVFRQPGSGVGAGAAGSKSAIPPMGLGPSEDESKTRLTGDPIPFDDLAMQPGEVLQLHPALEVVAADVPAVLIGYLKDRAIVVATPMVSGKPLLVKDGTLFNIKTFSGTSLYNFRTRVLASHSHPMPHLHLEYPRLVCQTKIRKALRALTDLPATLLNPASGDSRDVVLKDLSVGGAKIVLPEPVTCAKGDPFVVGFRIKIGDDLEEAIRADAVMCSAESRTGKETTVHTMSVQFKELPKSTSLAIMALVYRLQLRKG | not soluble
18 | ERVDEKVFSAGTSIFRGILEKVKAPLMYGDREVWGMARASEDFFFILPVTDDLTPVLFYNRLTNEPCFVSDQGITEYFKFAQEGDYIEVEGSSVFMANLLYYRFFPTRITSYNAPIEGVVSKTGNPAFTIPMLPGVSDCIEISNNRKVFLTNQLGVVNITDGMEPPIIAGVSASYGSSVRVYGHVSQRWDIIGHCYLDIYPTNCYPLSTKPVAGDDEVFVKQQGRQIEIDSNSPIVQVVVYDLEGKSVFRKRMTENA | not soluble
19 | SPTVEELYRNYGILADATEQVGQHKDAYQVILDGVKGGTKEKRLAAQFIPKFFKHFPELADSAINAQLDLCEDEDVSIRRQAIKELPQFATGENLPRVADILTQLLQTDDSAEFNLVNNALLSIFKMDAKGTLGGLFSQILQGEDIVRERAIKFLSTKLKTLPDEVLTKEVEELILTESKKVLEDVTGEEFVLFMKILSGLKSLQTVSGRQQLVELVAEQADLEQTFNPSDPDCVDRLLQCTRQAVPLFSKNVHSTRFVTYFCEQVLPNLGTLTTPVEGLDIQLEVLKLLAEMSSFCGDMEKLETNLRKLFDKLLEYMPLPPEEAENGENAGNEEPKLQFSYVECLLYSFHQLGRKLPDFLTAKLNAEKLKDFKIRLQYFARGLQVYIRQLRLALQGKTGEALKTEENKIKVVALKITNNINVLIKDLFHIPPSYKSTVTLSWKPVQKVEIGQKRASEDTTSGSPPKKSSAGPKRDARQIYNPPSGKYSSNLGNFNYERSLQGK | soluble
20 | MAGAGGQRNSEHVLCDACYFEEFDLVDAPDTIQVRVCSRCGAVHKGNRWVDIGAEDYTDIAVEQVSEALGIHVDAQSVAWQVAPEQLDKNNIRMHAEFSGVIRGTPVTEEVTVPVRISRQTCKRCGKIAGGSFASIVQVRADGRDPTDDERERAEEIAQEYVAAREETGDRNAFITETKSVDDGLDMKISTNQMGLGIAKRITAQLGGSYSDSRRLISEDEDGQELYRMTYAVRLPRYRQGEVIDPEDGDGPVLVRSVQGNLKGVRLATGEDYEASFEAGETPDARRLGFREDGQQTTLVAIEDERAVQVLDPETFESKTVPRPDYLDIDADEVPVLKSHAGLHILPAADADTDELEHHHHHH | not soluble
21 | MGSDKIHHHHHHSAHNKVSSQKLEAKNVNQVSNYSGDIDLLTVSQPTTPTTNNGQINQYFINRFDNAISLLNGKYVVNHNVLPQNTSGEEINILNESVKIANQQLIVGAQKIEKSDIDVKVVQKGNSIILAENPTTLKNSATSMATKHVGVTKVEFHWYGVRLFLSKNDVNKILKYGPTSVSIATIWMPTTWVVKLAASAAVACGWMSSVNGGIWIDWGLIPTKWGWQ | not soluble
